According to US6777176:

Tests used:
[1] = target: enzyme I (phosphoenolpyruvate-protein-phosphatase, EC 2.7.3.9) of the bacterial phosphotransferase system (E. coli) (UniProt P08839); assay: cell-based or functional assay
[2] = tested on: peptides from the phage display library which became phosphorylated by Enzyme I

| Substance | uncoupling P1/peptide/h [1] | phosphorylation of phage displayed peptides by enzyme I with [32P]phosphoenolpyruvate, fold over the average [2] | rate of phosphorylation by enzyme I (pyruvate formation coupled to lactate dehydrogenase) [2] |
| --- | --- | --- | --- |
| HPr protein (from UniProt P0AA04 1-85) | 2.7 P1/peptide/h |  |  |
| enzyme I (phosphoenolpyruvate-protein-phosphatase, EC 2.7.3.9) of the bacterial phosphotransferase system |  | phosphorylated 25 to 30 fold over the average | The inhibitory peptides are phosphorylated by enzyme I at a much slower rate than Hpr. |
